Values of other authors in PMC12692597.
pKd: −log10 of the molar value.

Molecular target: IL-13 (Homo sapiens) (UniProt P35225)
Sequence of UniProt P35225 (P35225 25-146): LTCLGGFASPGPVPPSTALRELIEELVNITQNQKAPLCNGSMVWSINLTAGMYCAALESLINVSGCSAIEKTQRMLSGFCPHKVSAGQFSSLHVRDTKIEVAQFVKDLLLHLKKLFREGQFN

pKd: 10.70
Substance: IL-13Rα2 (from UniProt Q14627)
